The record followed here is the nanobody polyreactivity screen of Harvey et al. (2022).

The data set can be described thus: yeast display, Sf9 membrane polyspecificity reagent, FACS + sequencing; frameworks hold sequencing errors. Put shortly: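 Galactose induction of a Saccharomyces cerevisiae BJ5465 synthetic nanobody display library ran 36–48 hours. The cells were then stained for 1 hour at 4 °C with 10% biotinylated, detergent-solubilized Sf9 membrane reagent, pulled down on streptavidin microbeads and FACS-sorted into low and high (top ~1%) gates on expression and reagent-binding fluorescence. Labels for polyreactivity follow the gate of origin.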
Consider “QVQLVESGGGLVQAGGSLRLSCAASGSTFRYYAMGWYRQAPGKERELVAAISWGAGSTYYADSVKGRFTISRDNAKNTVYLQMNSLKPEDTAVYYCNTLQITGWYDYWGQGTQVTVSS”, for which the “polyreactivity (PSR sort gate)” value was “high polyreactivity”. For “QVQLVESGGGLVQAGGSLRLSCAASGSTFRYYAMGWYRQAPGKERELVAAITFDGGTTSYADSVKGRFTISRDNAKNTVYLQMNSLKPEDTAVYYCAREGRTYWSKSISPYWRYGYWGQGTQVTVSS”, the “polyreactivity (PSR sort gate)” value is on record as “high polyreactivity”. For the sequence “QVQLVESGGGLVQAGGSLRLSCAASGSTFRYYAMGWYRQAPGKERELVAAITTSGSRTYYADSVKGRFTISRDNAKNTVYLQMNSLKPEDTAVYYCAKDGWRYSQSLDWYRFGYWGQGTQVTVSS”, the “polyreactivity (PSR sort gate)” value was “high polyreactivity”.

With “QVQLVESGGGLVQAGGSLRLSCAASGSTFRYYAMGWYRQAPGKERELVARISWRGGSTYYADSVKGRFTISRDNAKNTVYLQMNRLKPEDTAVYYCAAVRWVRYRTSAYEYWGQGTLVTVSS”, the “polyreactivity (PSR sort gate)” value was “high polyreactivity”.

As to “QVQLVESGGGLVQAGGSLRLSCAASGSTFRYYAMGWYRQAPGKVRELVAAITSSGTSTYYADSVTGRFTISRDNAKNTVYLQKNSLKPEDTAVYYCAAPPVYKWVSSRYDYWGQGTQVTVSS”, the “polyreactivity (PSR sort gate)” value is given as “low polyreactivity”. In the case of “QVQLVESGGGLVQAGGSLRLSCAASGSTFSANTMGWYRPAPGKERELLAAISSSGVGTRYADSVKGRFTISRDTAKNNVYLQMKSLKPEDTAVYYCAADYRPTVITRNDYWGQGTQVTVSS”, the “polyreactivity (PSR sort gate)” value is reported as “low polyreactivity”. Turning to “QVQLVESGGGLVQAGGSLRLSCAASGSTFSAYAMGWYRQAPGKERELVAAITRSGGSTYYADSVKGRFTISRDNAKNTVYLQMNSLKPEDTAVYYCAVRGYLLYYPPYKYEYWGQGTQVTVSS”, the “polyreactivity (PSR sort gate)” value is on record as “high polyreactivity”. Next, “QVQLVESGGGLVQAGGSLRLSCAASGSTFSDYAMGWYRQAPGKERELVAGITGGGGTYYADSVKGRFTISRDNAKNTVYLQMNSLKPEDTAVYYCAAGRRHGFGYWGQGTQVTVSS”: “low polyreactivity”. With “QVQLVESGGGLVQAGGSLRLSCAASGSTFSEYAMGWYRQAPGKERELVAAISETGGRTYYADSVKGRFTISRDNAKNTVYLQMNSLKPEDTAVYYCAVDHLTRSGDGEYWGQGTQVTVSS”, the “polyreactivity (PSR sort gate)” value was “high polyreactivity”.

“QVQLVESGGGLVQAGGSLRLSCAASGSTFSFNAMGWYRQAPGKERELVAAITGGDGTNYADSVKGRFTISRDNAKNTVYLQMNILKPEDTAVYYCAAYQWGSTEDYWFTYGYWGQGTQVTVSS”: the “polyreactivity (PSR sort gate)” value is given as “low polyreactivity”.

In the case of “QVQLVESGGGLVQAGGSLRLSCAASGSTFSFNDMGWYRQAPGKERELVADISWSGDTTYADSVKGRFTISRDNAKNTVYLQMNSLKPEDTAVYYCNAEGFSIAFYANWVVQWEFDFWGQGTQVSVSS”, the “polyreactivity (PSR sort gate)” value is given as “high polyreactivity”. Consider “QVQLVESGGGLVQAGGSLRLSCAASGSTFSFYAMGWDRQAPGKERELVAAIRAGTRTYYADSVKGRFTISRDNAKNTVYLQMNSLKPEDTAVYYCAATRRRYPYYYWGQGTLVTVSS”, for which the “polyreactivity (PSR sort gate)” value is recorded as “high polyreactivity”. On to “QVQLVESGGGLVQAGGSLRLSCAASGSTFSFYDMGWYRQAPGKETELVDAITGSGGTTYYADSVKGRFTISRDNAKNTVYLKMNSLIPEDTAVYFCAADSLESYPDYEYDYWGQGTQVTVSS”, for which the “polyreactivity (PSR sort gate)” value was “low polyreactivity”. On to “QVQLVESGGGLVQAGGSLRLSCAASGSTFSGNVMGWYRQAPGKERALVAAIRRSSGSTYYADSVKGRFTISRDNAKNTVYLQMNSLKPEDTAVYYCATDVTKIRQGDYYYWGQGTQVTVSS”, for which the “polyreactivity (PSR sort gate)” value is “high polyreactivity”. For the sequence “QVQLVESGGGLVQAGGSLRLSCAASGSTFSGYAMGGYRQAPGKERELVAAISSSGGSTSYADSVKGRFTISRDNAKNTVYLQMNSLKPEDTAVYYCAARAKGYAHIRAYDYWGQGTQVTVSS”, the “polyreactivity (PSR sort gate)” value is given as “low polyreactivity”. Consider “QVQLVESGGGLVQAGGSLRLSCAASGSTFSGYAMGWSRQAPGKERELVASITSSGGSTYYADSVKGRFTISRDNAKNTVYLQMNSLKPEDTAVYYCAAAKSAMWGQGTQVTVSS”, for which the “polyreactivity (PSR sort gate)” value is “low polyreactivity”. Regarding “QVQLVESGGGLVQAGGSLRLSCAASGSTFSGYDRGWYRQEPGKESEFVATITYSGGSTYYADSVKGRFTISRDNAKNTVYLQMNSLKPEDTAVYYCAADTPDAPDYSGLYYWGQGTQVTVSS”, the “polyreactivity (PSR sort gate)” value is on record as “low polyreactivity”.

For “QVQLVESGGGLVQAGGSLRLSCAASGSTFSGYVMGWYRQAPGKERELVAAITGRGGNTYYADSVKGRFTISRDNGKNTVYLQMNSLKPEDTAVYYCAAARRSYQYGYWGQGTQVTVSS”, the “polyreactivity (PSR sort gate)” value is given as “high polyreactivity”. The same measure for “QVQLVESGGGLVQAGGSLRLSCAASGSTFSHYTMGWYRQAPGKERELVAAITRSGGSTYYADSVKARFTISRDNAKNNVYLQMTSLNPEDSAVYYCAATRQWNILRYDYWGQGTLVTVSS”: “low polyreactivity”.

Regarding “QVQLVESGGGLVQAGGSLRLSCAASGSTFSHYTMGWYRQAPGKERQLVAAINYGGASTYDADSVKGRFTISRDNAKNTVYLQMNSLKPEDTAVYYCAAAYRPSEQYNYWGQGTQVTVSS”, the “polyreactivity (PSR sort gate)” value was “low polyreactivity”. “QVQLVESGGGLVQAGGSLRLSCAASGSTFSINAMGWYRPAPGKERELVAAITWRGTRTYYADSVKGRFTISRDNAKNTVYLQMNSLKPEDTAVYYCAATGSGQSSYYYWGQGTQVTVSS”: the “polyreactivity (PSR sort gate)” value was “high polyreactivity”. For the sequence “QVQLVESGGGLVQAGGSLRLSCAASGSTFSIYAMGWYRQAPGKERELVAAISFSDDSTYYADSVKGRFTISRDNAKNTVYLQMNSLKPEDTAVYYCAAEGYWGQPFDYDGALEYWGQGTQVTVSS”, the “polyreactivity (PSR sort gate)” value was “high polyreactivity”.

As to “QVQLVESGGGLVQAGGSLRLSCAASGSTFSIYAMGWYRQAPGKERELVAAISGSGSRTYYADSVKGRFTISRDNAKNTVYLQMNSLKPEDTAVYYCAARGRHRDGFDFNYWGQGTQVTVSS”, the “polyreactivity (PSR sort gate)” value is recorded as “high polyreactivity”. The same measure for “QVQLVESGGGLVQAGGSLRLSCAASGSTFSKYAMGWYRQAPGKERELVAAITRTTGRTYYADSVKGRFSISRDNAKNTVYLHMNSLKPEDTAVDYCAARSPYYRAYKYDYWGQGTQVTVSS”: “high polyreactivity”; for “QVQLVESGGGLVQAGGSLRLSCAASGSTFSLNDMGWYRQAPGKERQLVAAITGRGTRTYYADSVKGRFTISRDNAKNNVYLQMNSLKPEDTAVYYCAIDYPRGSPYGYNYWVQGTQVTVSS”: “high polyreactivity”; for “QVQLVESGGGLVQAGGSLRLSCAASGSTFSLYAMGWYRQAPGKERELVAAITRSGGGTHYADSVKGRFTISRDNAKNTVYLQMNSLKPEDTAVYYCAKRQSGYRYDYWGQGTEVTVSS”: “low polyreactivity”. The same measure for “QVQLVESGGGLVQAGGSLRLSCAASGSTFSNNAMGWYRQAPGKERELVASTNYADSVKGRFTISRDNEKNTVYLQMNSLKPEDTAVYYCAAGAYPSWGLDFWGQGTQVTVSS”: “low polyreactivity”; for “QVQLVESGGGLVQAGGSLRLSCAASGSTFSNYAMGGYRQAPGKERELVAAITSGGTTNYADSVKGRFTISRDNAKNTVYLQMNSLKPEDTAVYYCAKRYSYHVPTHIWVEYYYWGQGTQVTVSS”: “low polyreactivity”; for “QVQLVESGGGLVQAGGSLRLSCAASGSTFSPYAMGWYRHAPGKERELVAAITSGGGSTYYADSVKGRFTISRDNAKNTVYLQMNSLKPEDTAVYYCNAYLYYLGGPYDYWGQGTQVTVSS”: “high polyreactivity”.

As to “QVQLVESGGGLVQAGGSLRLSCAASGSTFSPYAMGWYRQAPGKERELVAAINYSSGSTYYADSVKGRFTISRDNAKNTVYLQMNSLKPEDTAVYYCANGWYAGYPYDYWGQGTQVTVSS”, the “polyreactivity (PSR sort gate)” value is listed as “low polyreactivity”. Take “QVQLVESGGGLVQAGGSLRLSCAASGSTFSPYAMGWYRQAPGKERELVADISWPGGTTYYADSVKGRFTISRDNAKNTVYLQMNSLKPEVTAVYYCAVTYWDYTFQITYEYWGQGTQVTVSS”: the “polyreactivity (PSR sort gate)” value is recorded as “low polyreactivity”.

With “QVQLVESGGGLVQAGGSLRLSCAASGSTFSPYAMGWYRQAPGKERELVAGISRGTSTNYADSVKGRFTISRDNAKNTVYLQMNSLKPVDTAVYYCAARAYHRYLPGYRVRFGDYYYWGQGTQVTVSS”, the “polyreactivity (PSR sort gate)” value is recorded as “high polyreactivity”.

For “QVQLVESGGGLVQAGGSLRLSCAASGSTFSPYAMVWYRQEPGKERELVAAITWSGGSTYYADSVKGRFTISRDNAKNSVYLQMNSLKPEDTAVYYCNAVPYLSIEYDYWGQGTQVTVSS”, the “polyreactivity (PSR sort gate)” value is “high polyreactivity”.

For the sequence “QVQLVESGGGLVQAGGSLRLSCAASGSTFSQYAMGWYRQAPGKETELVAVITRSGGSTYYADSVKGRFTISRDNAKNTVYLQMNSLKPEDTAVYYCAARSGRYKGDYWGQGTQVTVSS”, the “polyreactivity (PSR sort gate)” value is on record as “low polyreactivity”. For “QVQLVESGGGLVQAGGSLRLSCAASGSTFSQYVMGWYRQAPGKERELVAAISSGGSTYYADSVKGRFTISRDNAKNTVYLQMNSLKPEDTAVYYCAAKYDGSYVGLYWYSMNYWGQGTQVTVSS”, the “polyreactivity (PSR sort gate)” value is given as “low polyreactivity”.

Consider “QVQLVESGGGLVQAGGSLRLSCAASGSTFSRNAMGWYRQAPGKERELVAAISYRGGSTYYADSVKGRFTISRDNAKNTVYLQMNSLKPEDTAVYYCNADVGWRAPDYGGYDYWGQGTQVTVSS”, for which the “polyreactivity (PSR sort gate)” value is given as “high polyreactivity”. Take “QVQLVESGGGLVQAGGSLRLSCAASGSTFSRNAMGWYRQAPGKERELVAAITSSGGSTYYADSVKGRFTISRDNAKNTVYLQMNSLKPEDTAVYYCAAPRRRHFDYWGQGTQVTVSS”: the “polyreactivity (PSR sort gate)” value is recorded as “high polyreactivity”. In the case of “QVQLVESGGGLVQAGGSLRLSCAASGSTFSRNAMGWYRQAPGKERELVASITRGGSTYADSVKGRFTISRDNAKNTVYLQMNSLKPEDTAVYYCAKSVTGWRGLWYTPRNYYWGQGTQVTVSS”, the “polyreactivity (PSR sort gate)” value is listed as “high polyreactivity”. The same measure for “QVQLVESGGGLVQAGGSLRLSCAASGSTFSRYAMGWYRQAPGKERDLVAAISWGGNTYYADSVKGRFTISRDNAKNTVYLQMNSLKPEDTAVYYCNRYSKLYNTMDYWGQGTQVTVSS”: “high polyreactivity”; for “QVQLVESGGGLVQAGGSLRLSCAASGSTFSRYAMGWYRQAPGKERELVAAISRGGNTYYADSVKGRFTISRDNAKNTVYLQMNSLKPEDTAVYYCNRYSKLYNTMDYWGQGTQVTVSS”: “high polyreactivity”; for “QVQLVESGGGLVQAGGSLRLSCAASGSTFSRYAMGWYRQAPGKERELVAAISWGGNTYYADSVKGRFTISRDNAKNTVYFQMNSLKPEDTALYYCATEVRYQGWRDYWGQVTQVTVSS”: “high polyreactivity”.
